Reference: PMC5356071

Biological target: Zika virus envelope (E) glycoprotein, strain H/PF/2013 (French Polynesia), on mature infectious virions (Zika virus strain H/PF/2013, French Polynesia)
Assay: cryo-EM structure; mature ZIKV H/PF/2013 particles incubated with ZIKV-117 Fab at 4 °C for 2–3 h, flash-frozen on lacey carbon grids; icosahedral reconstruction at 6.2 Å; E dimer (PDB 5IRE) and Fab domains (ZV-67, PDB 5KVG) fitted; occupancies by EMfit

B1: ZIKV-117 Fab (Fab fragment of the human monoclonal antibody ZIKV-117) (Fab, V domains shown)
VH: QVQLVESGGGVVRPGGSLRLSCAASGFTFKNYGIHWVRQAPGKGPEWVAFVRYDGNNKYYADSVKGRFTISRDNAKNTLSLQMNSLRVEDTAVYFCARDPETFGGFDYWGQGTLVTVSS
VL: ETVMTQSPATLSVSPGERGTLSCRASESVSSNLAWYQQKPGKAPRLLIYGASTRATGIPDRFSGSGSGTEFTLTISSLQSEDFAVYYCQQYYYSPRTFGQGTKVEVK
In the case of B1, the Fabs bound per virion at saturation (Fabs per virion (180 sites)) is reported as 60, the Fabs per virion at the 2f sites (Fabs per virion) is reported as 21 and the Fabs per virion at the 3f sites (Fabs per virion) is reported as 35. For the same binder, the occupancy at the 2f site (average Fab density relative to E protein density) was 35% and the occupancy at the 3f site (average Fab density relative to E protein density) was 58%.
